These results are taken from the MegaScale stability set (Tsuboyama et al. 2023).

The labels stand for the following.
B1: EEHEE_rd4_0363 (parent)
chain: VTVDIKGMEYHFDNPEEAKKFAERMAKELGGELKVENGTLKVE
B2: EEHEE_rd4_0003 (parent)
chain: KKVTINGVEIKFNNPEEAVKFALELAKRLNLRIEFHGDQIKIE

The variants in the first series derive from B1. Nature of the series: folding stability dG (cDNA display proteolysis); higher = more stable. The note with it: PBS, room temperature.
Regarding VTFDIKGMEYHFDNPEEAKKFAERMAKELGGELKVENGTLKVE [V3F], the “folding stability dG” value came out at 0.603 kcal/mol. In the case of VTIDIKGMEYHFDNPEEAKKFAERMAKELGGELKVENGTLKVE [V3I], the “folding stability dG” value is 1.18 kcal/mol. Same read-out and setting: under VTNDIKGMEYHFDNPEEAKKFAERMAKELGGELKVENGTLKVE [V3N] stands -0.005 kcal/mol; under VTWDIKGMEYHFDNPEEAKKFAERMAKELGGELKVENGTLKVE [V3W], 0.119 kcal/mol; under VTGDIKGMEYHFDNPEEAKKFAERMAKELGGELKVENGTLKVE [V3G], 0.059 kcal/mol. The same measure, in the same setting: for VTADIKGMEYHFDNPEEAKKFAERMAKELGGELKVENGTLKVE [V3A] the value was 0.392 kcal/mol; for VTKDIKGMEYHFDNPEEAKKFAERMAKELGGELKVENGTLKVE [V3K], -0.032 kcal/mol; for VTHDIKGMEYHFDNPEEAKKFAERMAKELGGELKVENGTLKVE [V3H], -0.104 kcal/mol. Take VTLDIKGMEYHFDNPEEAKKFAERMAKELGGELKVENGTLKVE [V3L]: the “folding stability dG” value was determined as 1.04 kcal/mol. The same measure, in the same setting: for VTQDIKGMEYHFDNPEEAKKFAERMAKELGGELKVENGTLKVE [V3Q] the value was 0.039 kcal/mol; for VTSDIKGMEYHFDNPEEAKKFAERMAKELGGELKVENGTLKVE [V3S], 0.004 kcal/mol.

VTCDIKGMEYHFDNPEEAKKFAERMAKELGGELKVENGTLKVE [V3C]: the “folding stability dG” value was found to be 1.34 kcal/mol. As to VTDDIKGMEYHFDNPEEAKKFAERMAKELGGELKVENGTLKVE [V3D], the “folding stability dG” value is -0.088 kcal/mol. Still for that read-out and setting: for VTMDIKGMEYHFDNPEEAKKFAERMAKELGGELKVENGTLKVE [V3M] the value was 0.639 kcal/mol; for VTYDIKGMEYHFDNPEEAKKFAERMAKELGGELKVENGTLKVE [V3Y], 0.332 kcal/mol. Same read-out and setting: for VTTDIKGMEYHFDNPEEAKKFAERMAKELGGELKVENGTLKVE [V3T] the value was 0.19 kcal/mol; for VTRDIKGMEYHFDNPEEAKKFAERMAKELGGELKVENGTLKVE [V3R], -0.231 kcal/mol; for PTVDIKGMEYHFDNPEEAKKFAERMAKELGGELKVENGTLKVE [V1P], 0.612 kcal/mol. Still for that read-out and setting: for TTVDIKGMEYHFDNPEEAKKFAERMAKELGGELKVENGTLKVE [V1T] the value was 2.01 kcal/mol.

Regarding MTVDIKGMEYHFDNPEEAKKFAERMAKELGGELKVENGTLKVE [V1M], the “folding stability dG” value was determined as 2 kcal/mol. Take ITVDIKGMEYHFDNPEEAKKFAERMAKELGGELKVENGTLKVE [V1I]: the “folding stability dG” value worked out at 2.06 kcal/mol.

On to DTVDIKGMEYHFDNPEEAKKFAERMAKELGGELKVENGTLKVE [V1D], for which the “folding stability dG” value stood at 0.479 kcal/mol. Still for that read-out and setting: under KTVDIKGMEYHFDNPEEAKKFAERMAKELGGELKVENGTLKVE [V1K] stands 1.2 kcal/mol; under FTVDIKGMEYHFDNPEEAKKFAERMAKELGGELKVENGTLKVE [V1F], 2.41 kcal/mol; under YTVDIKGMEYHFDNPEEAKKFAERMAKELGGELKVENGTLKVE [V1Y], 2.55 kcal/mol. For HTVDIKGMEYHFDNPEEAKKFAERMAKELGGELKVENGTLKVE [V1H], the “folding stability dG” value is 1.63 kcal/mol.

On to CTVDIKGMEYHFDNPEEAKKFAERMAKELGGELKVENGTLKVE [V1C], for which the “folding stability dG” value stood at 2.67 kcal/mol.

On to ATVDIKGMEYHFDNPEEAKKFAERMAKELGGELKVENGTLKVE [V1A], for which the “folding stability dG” value was determined as 1.48 kcal/mol. Turning to ETVDIKGMEYHFDNPEEAKKFAERMAKELGGELKVENGTLKVE [V1E], the “folding stability dG” value turned out to be 0.523 kcal/mol. Still for that read-out and setting: under STVDIKGMEYHFDNPEEAKKFAERMAKELGGELKVENGTLKVE [V1S] stands 1.45 kcal/mol. The same measure, in the same setting: for LTVDIKGMEYHFDNPEEAKKFAERMAKELGGELKVENGTLKVE [V1L] the value was 2.03 kcal/mol. Still for that read-out and setting: under WTVDIKGMEYHFDNPEEAKKFAERMAKELGGELKVENGTLKVE [V1W] stands 2.81 kcal/mol; under QTVDIKGMEYHFDNPEEAKKFAERMAKELGGELKVENGTLKVE [V1Q], 1.33 kcal/mol; under RTVDIKGMEYHFDNPEEAKKFAERMAKELGGELKVENGTLKVE [V1R], 1.29 kcal/mol. Regarding GTVDIKGMEYHFDNPEEAKKFAERMAKELGGELKVENGTLKVE [V1G], the “folding stability dG” value was 0.889 kcal/mol.

NTVDIKGMEYHFDNPEEAKKFAERMAKELGGELKVENGTLKVE [V1N]: the “folding stability dG” value was determined as 1.31 kcal/mol. Still for that read-out and setting: under VTVDHKGMEYHFDNPEEAKKFAERMAKELGGELKVENGTLKVE [I5H] stands 0.78 kcal/mol; under VTVDRKGMEYHFDNPEEAKKFAERMAKELGGELKVENGTLKVE [I5R], 0.036 kcal/mol; under VTVDPKGMEYHFDNPEEAKKFAERMAKELGGELKVENGTLKVE [I5P], -0.167 kcal/mol. As to VTVDEKGMEYHFDNPEEAKKFAERMAKELGGELKVENGTLKVE [I5E], the “folding stability dG” value was 0.155 kcal/mol.

VTVDKKGMEYHFDNPEEAKKFAERMAKELGGELKVENGTLKVE [I5K]: the “folding stability dG” value is 0.088 kcal/mol.

With VTVDQKGMEYHFDNPEEAKKFAERMAKELGGELKVENGTLKVE [I5Q], the “folding stability dG” value was determined as 0.05 kcal/mol. Still for that read-out and setting: under VTVDGKGMEYHFDNPEEAKKFAERMAKELGGELKVENGTLKVE [I5G] stands 0.128 kcal/mol; under VTVDWKGMEYHFDNPEEAKKFAERMAKELGGELKVENGTLKVE [I5W], 1.49 kcal/mol; under VTVDDKGMEYHFDNPEEAKKFAERMAKELGGELKVENGTLKVE [I5D], 0.025 kcal/mol. The same measure, in the same setting: for VTVDVKGMEYHFDNPEEAKKFAERMAKELGGELKVENGTLKVE [I5V] the value was 1.88 kcal/mol; for VTVDLKGMEYHFDNPEEAKKFAERMAKELGGELKVENGTLKVE [I5L], 1.23 kcal/mol; for VTVDSKGMEYHFDNPEEAKKFAERMAKELGGELKVENGTLKVE [I5S], 0.289 kcal/mol. On the same count and under the same terms, for VTVDAKGMEYHFDNPEEAKKFAERMAKELGGELKVENGTLKVE [I5A] the value was 0.423 kcal/mol; for VTVDFKGMEYHFDNPEEAKKFAERMAKELGGELKVENGTLKVE [I5F], 1.44 kcal/mol; for VTVDYKGMEYHFDNPEEAKKFAERMAKELGGELKVENGTLKVE [I5Y], 1.52 kcal/mol. On to VTVDMKGMEYHFDNPEEAKKFAERMAKELGGELKVENGTLKVE [I5M], for which the “folding stability dG” value was 0.754 kcal/mol. The same measure, in the same setting: for VTVDTKGMEYHFDNPEEAKKFAERMAKELGGELKVENGTLKVE [I5T] the value was 0.201 kcal/mol; for VTVDCKGMEYHFDNPEEAKKFAERMAKELGGELKVENGTLKVE [I5C], 1.99 kcal/mol.

The variants in a further series derive from B2. Described as above. The note with it: PBS, room temperature.
As for KKVTINGVEIKFNNPEEAVKFALELAKRLNLRIEFHGDQIKHE [I42H], the “folding stability dG” value stood at 1.63 kcal/mol. On the same count and under the same terms, for KKVTINGVEIKFNNPEEAVKFALELAKRLNLRIEFHGGQIKIE [D38G] the value was 2.31 kcal/mol; for KKVTINGVAIKFNNPEEAVKFALELAKRLNLRIEFHGDQIKIE [E9A], 2.4 kcal/mol; for KKVTINGVEIKFNNPEEAVKFALELAKRLNSRIEFHGDQIKIE [L31S], 1.7 kcal/mol. The same measure, in the same setting: under KKVTINGVEIKFNNPEEAVKFALELAKRLNLRIEFSGDQIKIE [H36S] stands 2.66 kcal/mol.
